Assay results published in the supplement of paper PMC12764529.
± gives the half width of the 95% confidence interval.

Legend:
[1] = folding stability dG unfold from trypsin proteolysis; higher = more stable
Outline: (§1)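 Unfolding free energy was derived, per protease or combined, by relating Bayesian-fitted K50 values from sequencing counts to a sequence-predicted unfolded-state K50 and a shared folded-state K50. The underlying digests exposed cysteine-free mini-proteins under 80 residues, in a PA-tagged cDNA display construct, to trypsin and chymotrypsin at 11 threefold-diluted concentrations and to a no-protease condition. A filter kept only designs with AlphaFold2 dimer inter-PAE above 15.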

[2] = folding stability dG unfold (combined trypsin and chymotrypsin); higher = more stable
Outline: as §1

[3] = folding stability dG unfold from chymotrypsin proteolysis; higher = more stable
Outline: as §1

Sequence	folding stability dG unfold [1]	folding stability dG unfold [2]	folding stability dG unfold [3]
SAGGSAGGSAGGQLKLKLKVKVTTRVRDPATGKTYTVTEEVEVTVELEFPPPPLPPGFKSAGGSAGGSAGGS [r10_1026_TrROS_Hall]	2.7 ± 0.22 kcal/mol	3.64 ± 0.21 kcal/mol	4.2 ± 0.17 kcal/mol
SAGGSAGGSAGGSAELLEVLEVTKTGSGYTVKVLERSPELGPSVRTESFPADDTSVLLLSAGGSAGGSAGGS [r4_253_JUSTAS]	-0.00295 ± 0.088 kcal/mol	-0.0527 ± 0.1 kcal/mol	-0.384 ± 0.22 kcal/mol
SAGGSAGGSAGGSAMTLLSEEELPDGSRRVLMRFPDGTRMELTVHPDGSVEERVTPPAASAGGSAGGSAGGS [r4_483_JUSTAS]	2.28 ± 0.065 kcal/mol	2.72 ± 0.086 kcal/mol	2.904 ± 0.021 kcal/mol
SAGGSAGGSAGGSDDPDGKPKPQIPPIKVEPIPIKDPNGWSIEIYYFPWNGMLIISFYNSAGGSAGGSAGGS [r4_305_TrROS]	3.3 ± 0.22 kcal/mol	4.26 ± 0.2 kcal/mol	4.34 ± 0.12 kcal/mol
SAGGSAGGSAGGSDGALIFIIHIKMEMELEPNPDGPPKWDMDWDIEPTWIQIDDPEDFKSAGGSAGGSAGGS [r4_450_TrROS]	1.59 ± 0.13 kcal/mol	2.19 ± 0.21 kcal/mol	2.48 ± 0.15 kcal/mol
SAGGSAGGSAGGSDKDPDKMKPKPVFEMEIVTYEWEKDGDGDWEPLSVEVQRIRVYAMDSAGGSAGGSAGGS [r4_288_TrROS]	3.13 ± 0.14 kcal/mol	4.19 ± 0.19 kcal/mol	4.51 ± 0.23 kcal/mol
SAGGSAGGSAGGSGDPNNPVTLLVLDVPSPEPAGTVYYFPDGYVAVNFPSINRTLVFYGSAGGSAGGSAGGS [r4_78_TrMRF]	0.766 ± 0.036 kcal/mol	1.2 ± 0.17 kcal/mol	1.42 ± 0.15 kcal/mol
SAGGSAGGSAGGSGLSFEIVEEREELLPDGRPRRRIFATLPGGRRLVIDDDGRITIDPDSAGGSAGGSAGGS [r4_111_TrMRF]	0.45 ± 0.33 kcal/mol	0.897 ± 0.25 kcal/mol	0.968 ± 0.15 kcal/mol
SAGGSAGGSAGGSGMVNLPEPIKVTKEEPLPDGSVRYTIEYPDSTITVFKYPDGIKIESSAGGSAGGSAGGS [r4_280_JUSTAS]	0.35 ± 0.049 kcal/mol	0.393 ± 0.1 kcal/mol	0.29 ± 0.24 kcal/mol
SAGGSAGGSAGGSGPPKLRLLRRVEVVYDGLVLPPNFPLPPSAPPNLKVFVSLVTLPEGSAGGSAGGSAGGS [r4_436_TrMRF]	3.11 ± 0.091 kcal/mol	2.35 ± 0.43 kcal/mol	1.83 ± 0.25 kcal/mol
SAGGSAGGSAGGSGSKEPKYYYRVVVEDDGNPVVRTYAPDEPLPAPANLKVFPFLADEESAGGSAGGSAGGS [r4_107_TrMRF]	-0.421 ± 0.81 kcal/mol	0.452 ± 0.25 kcal/mol	0.857 ± 0.19 kcal/mol
SAGGSAGGSAGGSGSSVLVKTTTTLSVAPGATITLPDGTVYTVPAGVPVTVTTWVLVETSAGGSAGGSAGGS [r4_232_JUSTAS]	2.31 ± 0.14 kcal/mol	3.38 ± 0.13 kcal/mol	4.05 ± 0.092 kcal/mol
SAGGSAGGSAGGSIEIEITVELEDGYYLRISARFELNEDGSLKLEIKIELIKIEPGQELSAGGSAGGSAGGS [r10_241_TrROS_Hall]	3.52 ± 0.48 kcal/mol	3.18 ± 0.32 kcal/mol	2.27 ± 0.1 kcal/mol
SAGGSAGGSAGGSIEIIVRTPEMAKQMAKRIQKILADQGNPPPLKIEIHVIPPDDLPPWSAGGSAGGSAGGS [r4_472_TrROS]	-0.0989 ± 0.26 kcal/mol	0.388 ± 0.15 kcal/mol	0.571 ± 0.092 kcal/mol
SAGGSAGGSAGGSILLITTHPKDAEKAAKEIEKILAELDIPPDAKIEVYVVPKEYLPDESAGGSAGGSAGGS [r4_472_TrMRF]	0.323 ± 0.035 kcal/mol	0.329 ± 0.14 kcal/mol	0.176 ± 0.17 kcal/mol
SAGGSAGGSAGGSIPPSDVTTEVDPNTPLTTVTYPSGVVVTETFPPDGTSTTTVDTAAGSAGGSAGGSAGGS [r10_170_JUSTAS]	2.01 ± 0.038 kcal/mol	1.56 ± 0.039 kcal/mol	1.23 ± 0.028 kcal/mol
SAGGSAGGSAGGSITITTEPLPSGGRRVTVTLPGSSVVLELEFSPDETEEEVRAAVEAASAGGSAGGSAGGS [r10_825_JUSTAS]	1.47 ± 0.035 kcal/mol	1.93 ± 0.09 kcal/mol	2.12 ± 0.06 kcal/mol
SAGGSAGGSAGGSITITWNPESGTVKIKPPNNKKEIEIPAENMTPSQIIDQAKDNGVEVSAGGSAGGSAGGS [r4_49_TrROS]	-0.0527 ± 0.12 kcal/mol	0.935 ± 0.17 kcal/mol	1.39 ± 0.1 kcal/mol
SAGGSAGGSAGGSIVIEVDTLEEAKKLAEKLNLKVTEVKEVDGKLYVKIEIKSPEELKKSAGGSAGGSAGGS [r10_218_TrROS_Hall]	0.204 ± 0.11 kcal/mol	1.53 ± 0.12 kcal/mol	2.002 ± 0.018 kcal/mol
SAGGSAGGSAGGSKDERTLTLRLRVTTPIYGTDADGNPLEPIEVTKEYELTVTVPADLLSAGGSAGGSAGGS [r4_425_TrMRF]	1.18 ± 0.082 kcal/mol	2.1 ± 0.16 kcal/mol	2.69 ± 0.099 kcal/mol
SAGGSAGGSAGGSKFLVKTSVEVFKNPVGGNRYGAKITTLAVNPDTNEVTLSESYLPLDLSAGGSAGGSAGG [r7_216_TrMRF]	0.114 ± 0.11 kcal/mol	0.62 ± 0.12 kcal/mol	0.842 ± 0.13 kcal/mol

Sequence	folding stability dG unfold [1]	folding stability dG unfold [2]	folding stability dG unfold [3]
SAGGSAGGSAGGSKIEIEEENGELKITIEVDGKKYEITIPKDMTLEEALKKALEKLPGLSAGGSAGGSAGGS [r4_191_TrROS_Hall]	3.45 ± 0.69 kcal/mol	3.09 ± 0.18 kcal/mol	2.5 ± 0.087 kcal/mol
SAGGSAGGSAGGSKIENIKDIERNPNPDGHYMITIPNGWQIVVRMDKNGKMEIEIVPLKSAGGSAGGSAGGS [r4_177_TrROS]	1.87 ± 0.076 kcal/mol	1.82 ± 0.15 kcal/mol	1.88 ± 0.039 kcal/mol
SAGGSAGGSAGGSKKKKKKKKKKVVKLTVLIEKDGELYLVEIEFDKDGKIVSISVEKLPSAGGSAGGSAGGS [r4_192_TrROS_Hall]	2.12 ± 0.16 kcal/mol	3.27 ± 0.32 kcal/mol	4 ± 0.27 kcal/mol
SAGGSAGGSAGGSKKKPPKKITLVVWNEETGELTKVEFDAETKEVKVEKVPIKPGDILLSAGGSAGGSAGGS [r4_409_TrROS_Hall]	1.18 ± 0.034 kcal/mol	0.988 ± 0.21 kcal/mol	0.946 ± 0.062 kcal/mol
SAGGSAGGSAGGSKPEVIKLKVKKIKVKKKKYDKNGKLVEEEEKEITVETTVFVPKEDLSAGGSAGGSAGGS [r4_425_TrROS_Hall]	-0.381 ± 0.18 kcal/mol	0.182 ± 0.17 kcal/mol	0.336 ± 0.14 kcal/mol
SAGGSAGGSAGGSKPMYLFTVETENGKKLVIEAKSLEEALKALEKAGYKIKKVEVVKLPSAGGSAGGSAGGS [r4_213_TrROS_Hall]	3.36 ± 0.1 kcal/mol	3.81 ± 0.071 kcal/mol	3.996 ± 0.036 kcal/mol
SAGGSAGGSAGGSKPNNFKNIPKPVFKFKITTTEWKKNKDGTWTPVSTSTAEVTVWSNTSAGGSAGGSAGGS [r4_288_TrMRF]	3.2 ± 0.11 kcal/mol	3.88 ± 0.21 kcal/mol	4.29 ± 0.1 kcal/mol
SAGGSAGGSAGGSKTIEIELPGMSPEEIAAAIAEELGLDDVKITVERTEDGLLRVTIEVSAGGSAGGSAGGS [r4_408_TrROS_Hall]	1.57 ± 0.057 kcal/mol	1.76 ± 0.057 kcal/mol	1.81 ± 0.049 kcal/mol
SAGGSAGGSAGGSKYEIEILKIEELEDDSYRITAKINIPEAGTTEEITLTVPKGVELKLSAGGSAGGSAGGS [r4_133_TrMRF]	1.21 ± 0.017 kcal/mol	1.23 ± 0.072 kcal/mol	1.21 ± 0.062 kcal/mol
SAGGSAGGSAGGSLTFDGPDTKIEVYELDDDLLPVTIYTDSAPRTILVPPKEFLKLLASSAGGSAGGSAGGS [r4_346_TrMRF]	0.0915 ± 0.071 kcal/mol	0.367 ± 0.089 kcal/mol	0.449 ± 0.085 kcal/mol
SAGGSAGGSAGGSMELKLKVVEKTETRSATPGEDEPLPGNSSVTYEGNTLTTTTLVLVPLSAGGSAGGSAGG [r7_506_JUSTAS]	-0.728 ± 0.28 kcal/mol	-0.72 ± 0.34 kcal/mol	-0.736 ± 0.44 kcal/mol
SAGGSAGGSAGGSMIVERKPAPGGPRVEITIEIPDPTSDVPIIKKLVAEVLEDGSIVKASAGGSAGGSAGGS [r4_448_JUSTAS]	-0.193 ± 0.16 kcal/mol	-0.205 ± 0.21 kcal/mol	-0.525 ± 0.27 kcal/mol
SAGGSAGGSAGGSMKIVEVELIEYDEETKEFVYVFRVRLEDGSERLIVITPDGEMRVVPSAGGSAGGSAGGS [r4_35_TrROS_Hall]	2.61 ± 0.064 kcal/mol	3.26 ± 0.055 kcal/mol	3.481 ± 0.031 kcal/mol
SAGGSAGGSAGGSMKNVPVTVEGSSSVVPLPDGSPVTVTELTTTTLGENGEVSTSTTVVSSAGGSAGGSAGG [r11_817_JUSTAS]	-0.614 ± 0.07 kcal/mol	0.905 ± 0.083 kcal/mol	1.34 ± 0.039 kcal/mol
SAGGSAGGSAGGSMLKGKIISVDPKKGYAIIYIPGKKKLLIIKFDPDNTIVEIKEAPLSSAGGSAGGSAGGS [r4_192_TrMRF]	2.82 ± 0.35 kcal/mol	2.44 ± 0.33 kcal/mol	2.21 ± 0.14 kcal/mol
SAGGSAGGSAGGSMPVKLDEIIDYDPKKKVLTVLLTHPDGSKSLVVVPGKSIEEIKEANSAGGSAGGSAGGS [r4_357_TrMRF]	0.314 ± 0.029 kcal/mol	0.648 ± 0.098 kcal/mol	0.709 ± 0.029 kcal/mol
SAGGSAGGSAGGSMSVSSVGSSSGAGMIVKTTYFPGSGGTTVVLIEPASGVVLATTPVPGSAGGSAGGSAGG [r7_154_JUSTAS]	0.493 ± 0.04 kcal/mol	0.374 ± 0.13 kcal/mol	0.272 ± 0.079 kcal/mol
SAGGSAGGSAGGSMTSIKITYPDGSTKSASVSVDPNTGKVTTTFTDYTLSPDAKFTTISSAGGSAGGSAGGS [r10_306_JUSTAS]	0.372 ± 0.027 kcal/mol	0.325 ± 0.073 kcal/mol	0.202 ± 0.11 kcal/mol
SAGGSAGGSAGGSMVIRNENGYLIEVKTEVVVDEETKKKYVKTEIRIYKEGEEKELPEESAGGSAGGSAGGS [r4_48_TrROS_Hall]	0.369 ± 0.055 kcal/mol	1 ± 0.22 kcal/mol	1.13 ± 0.1 kcal/mol
SAGGSAGGSAGGSMVLTTTVEETVVDENGVETKITVKTYKLPDSEITLVTFPDGTVTPESAGGSAGGSAGGS [r10_404_JUSTAS]	0.493 ± 0.023 kcal/mol	0.493 ± 0.072 kcal/mol	0.462 ± 0.1 kcal/mol
SAGGSAGGSAGGSNIEVHYFPDGAIVMTIREPNGWYIKIVARIPPDGNIKITEIELFPMSAGGSAGGSAGGS [r4_246_TrROS]	3.24 ± 0.11 kcal/mol	3.49 ± 0.2 kcal/mol	3.78 ± 0.11 kcal/mol
